In the supplement of paper PMC9170038:

System: MS2 coat protein
Assay: apparent KD of MS2 coat protein; higher = weaker reporter binding
Settings: Eterna round: R107
Outline: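 Designed RNA switches, transcribed on-chip from Illumina sequencing clusters, were titrated with SNAP-549-labelled MS2 coat protein from 0.7 or 1.5 nM to 3 µM in twofold steps. The solution was 100 mM Tris-HCl pH 7.5, 80 mM KCl, 4 mM MgCl2, with constant ligand or without it. Apparent KD is the median over each design's normalised cluster binding-curve fits.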

[1] = input ligand: theophylline 20 uM
[2] = input ligand: tryptophan 2.4 mM
[3] = input ligand: theophylline 2 mM

Sequence | apparent KD of MS2 coat protein (input ligand: arginine 13.2 mM) | apparent KD of MS2 coat protein [1] | apparent KD of MS2 coat protein [2] | apparent KD of MS2 coat protein [3] | apparent KD of MS2 coat protein (input ligand: none)
GCACAACAUGAGGAUCACCCAUGUCGAGAUACCAGAACAUAUAUAUUCCCUUGGCAGCUCACACCUUUAAUGUAAAAUUCUUUGG [theeternabot_sameState_MS2_Theo_A_47] | 12 nM | 15.9 nM | 13.9 nM | – | –
GCACCAGGUACGGAUACCAGACGUUGCCAAACAGGGUGACAUGAGGAUCACCCAUGUACUGUCCCUUGGCAGCCGUACCUGGUGC [EThB NP+V+V2 #4 +-Same Structure] | 20.2 nM | 53 nM | 22.6 nM | – | –
GCAUCCUAGUCGGCCGCCACUACAACAUGAGGAUCACCCAUGUGUGGGAGAUCCGUCCUACGAAGUAGGACCGGGACUAGGAUGC [(T1)-(M1)-(M2)-(T)''-(M)'-(T)'-(T2)_Design5_2/18/17] | 110 nM | 337 nM | – | 324 nM | –
GCCAUCGGCGGAAGCCGAUGGGAUACAGAAGGAGCGCGGAUUAACGCAGGUAGGUCGCUGGACAUGAGGAUCACCCAUGUAAUAG [SSAA #9] | 19.2 nM | 41.9 nM | 18.5 nM | 22.5 nM | 22.8 nM
GCGCUCGACAGAAGGAGCGGCGACGUCGGUGUCAGGAGGCACAUGAGGAUCACCCAUGUCAGCCAGGUAGGUCGCUGUCGAUCGC [Arquce] | 22.8 nM | 41.9 nM | 36.8 nM | 40.1 nM | 37.3 nM
GCGGAAUAAUCGGCCGCCACUAUGAGACAGGAAACUGUCACAUGAGGAUCACCCAUGUAUCCUCAUAGGACCGGGAUUAAAACGC [Melting point difference] | 76.8 nM | 109 nM | – | 100 nM | –
GCGGAAUAAUCGGCCGCCACUAUGAUAUAGGAAACUAUAACAUGAGGAUCACCCAUGUAUCCUCAUAGGACCGGGAUUAAAACGC [TrypB - CS] | 39.7 nM | 121 nM | – | 101 nM | –
GCGGACAUGAGGAUCACCCAUGUAAAUCCUCGAGGACCGGUACGGCCGCCACUCGAACGAGUGGCGCGCGCGCGCGCGCGCGCGC [aAa] | 25.3 nM | 119 nM | 45.2 nM | 78.9 nM | 40.5 nM
GCUAGGUCUACGGCCGCCACUAGACGUGGGUUAAACAUGAGGAUCACCCAUGUGCUACAGGCGCAUAGGACCGGGUAGACCUAGC [SSTB NP+V+V2 #9 +-Same Structure] | 86.5 nM | 586 nM | 63.7 nM | 696 nM | 494 nM
GCUAGUGGCAGAAGGAGCGAGGCCCGCGCACAUAACAUGAGGAUCACCCAUGUGGCGAGACCUCAGGUAGGUCGCUGCCACUAGC [EAB NP+V2 #1] | 12 nM | 25.8 nM | 12.4 nM | 14.2 nM | 11.4 nM
GCUAUGGCUGGAAGGAGCGUGAAUUUCAGCGAACAUGAGGAUCACCCAUGUAAGGAUAUGGCACAGGUAGGUCGCUAGCCAUAGC [#19 Same State - Arginine B] | 13.6 nM | 21.2 nM | 13.4 nM | 15.1 nM | 14.3 nM
GCUGCCAUACGAAGGAGCGCUGCUGCGAUGUGGCGAACAUGAGGAUCACCCAUGUGGCAGCGGCAGGUAGGUCGCGUAUGGCAGC [#02 Exclusion - Arginine B] | 45.2 nM | 330 nM | 206 nM | 297 nM | 166 nM
GCUGUGAAGUCGGCCGCCACUGGUUAGUUUAACCUCAUGUAACAUGAGGAUCACCCAUGUAAUGUCAGGACCGGGACAACAGCAA [JR_ExcTryptoB_Sub016] | 131 nM | 236 nM | 357 nM | 289 nM | 145 nM
GCUGUGAAGUCGGCCGCCACUGGUUAGUUUUACCUCAUGUAACAUGAGGAUCACCCAUGUAAUUUCAGGACCGGGACAACAGCAA [JR_ExcTryptoB_Sub017] | 135 nM | 588 nM | – | 853 nM | –
GCUUGCUUGUAAGGUUCUGUCCGGCGUCGUCGAGGACCGGUACGGCCGCCACUCGCGCGUUUACAUGAGGAUCACCCAUGUCAUG [theeternabot_exclusion_MS2_Trp_A_49] | 34.3 nM | 38.7 nM | 47.5 nM | 35 nM | 40.6 nM
GGAAACCAAAGCGAUACCAGCGUACAUGAAAAGAGCGAAAACAUGAGGAUCACCCAUGUACGCCCUUGGCAGCGCAAAACCAAGG | 21.4 nM | 50.8 nM | 33.3 nM | 103 nM | 44.3 nM
GGACAUGCAGGAAGGAGCGACACAGCAGAAACUGCAAAUCCUCCACACGAGGAUCACCCGUGUCAGGUAGGUCGCCUGCAUGUCG [ArgXB 14 #Zipper #MS2Left #StaticStem #Blueprint] | 76.7 nM | 99.1 nM | 80.2 nM | 126 nM | 89.5 nM
GGACUAACCAGAAGGAGCGACACGCAGAAACUGCAAAUUCCUCCACACGAGGAUCACCCGUGUCAGGUAGGUCGCUGGUUAGUCG | 27.8 nM | 31.1 nM | 22.2 nM | 28.4 nM | 24 nM
GGACUAACCAGAAGGAGCGGCACGCAGAAACUGCAAAUUCCUCCACACGAGGAUCACCCGUGUCAGGUAGGUCGCUGGUUAGUCG | 33.6 nM | 30.6 nM | 23.1 nM | 27.6 nM | 21.5 nM
